Reference: the supplement of paper PMC10065799, “High-throughput profiling of sequence recognition by tyrosine kinases and SH2 domains using bacterial peptide display” (eLife, 2023)

Columns and labels:
Jak2 = Jak2 (UniProt O60674); assay: phosphorylation enrichment, bacterial display (enrichment ratio); higher = better substrate or ligand; peptides without Tyr show the background
EPHB1 = EPHB1 (UniProt P54762); assay: as above
Fes = Fes (UniProt P07332); assay: as above
Hck = Hck (UniProt P08631); assay: as above
AncSZ = assay: as above
Fyn = Fyn (UniProt P06241); assay: as above
Chain of Fyn (P06241 whole entry, looked up): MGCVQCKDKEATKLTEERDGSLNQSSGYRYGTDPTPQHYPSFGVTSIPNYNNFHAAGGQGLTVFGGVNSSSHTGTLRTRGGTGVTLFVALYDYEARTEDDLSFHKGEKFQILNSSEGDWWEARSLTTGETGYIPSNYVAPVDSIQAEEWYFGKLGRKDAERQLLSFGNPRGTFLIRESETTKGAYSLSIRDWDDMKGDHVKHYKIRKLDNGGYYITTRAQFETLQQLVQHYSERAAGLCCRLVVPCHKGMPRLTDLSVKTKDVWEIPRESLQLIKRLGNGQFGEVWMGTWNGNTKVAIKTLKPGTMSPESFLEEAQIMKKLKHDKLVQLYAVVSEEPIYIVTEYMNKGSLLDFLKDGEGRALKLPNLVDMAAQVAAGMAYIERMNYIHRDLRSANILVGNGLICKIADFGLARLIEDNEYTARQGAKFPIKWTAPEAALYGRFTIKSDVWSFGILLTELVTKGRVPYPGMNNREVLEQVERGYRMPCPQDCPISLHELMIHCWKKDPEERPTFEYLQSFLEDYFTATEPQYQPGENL

Fer (mouse) = assay: as above
FGFR1 = FGFR1 (UniProt P11362); assay: as above
Chain of FGFR1 (P11362 whole entry, looked up): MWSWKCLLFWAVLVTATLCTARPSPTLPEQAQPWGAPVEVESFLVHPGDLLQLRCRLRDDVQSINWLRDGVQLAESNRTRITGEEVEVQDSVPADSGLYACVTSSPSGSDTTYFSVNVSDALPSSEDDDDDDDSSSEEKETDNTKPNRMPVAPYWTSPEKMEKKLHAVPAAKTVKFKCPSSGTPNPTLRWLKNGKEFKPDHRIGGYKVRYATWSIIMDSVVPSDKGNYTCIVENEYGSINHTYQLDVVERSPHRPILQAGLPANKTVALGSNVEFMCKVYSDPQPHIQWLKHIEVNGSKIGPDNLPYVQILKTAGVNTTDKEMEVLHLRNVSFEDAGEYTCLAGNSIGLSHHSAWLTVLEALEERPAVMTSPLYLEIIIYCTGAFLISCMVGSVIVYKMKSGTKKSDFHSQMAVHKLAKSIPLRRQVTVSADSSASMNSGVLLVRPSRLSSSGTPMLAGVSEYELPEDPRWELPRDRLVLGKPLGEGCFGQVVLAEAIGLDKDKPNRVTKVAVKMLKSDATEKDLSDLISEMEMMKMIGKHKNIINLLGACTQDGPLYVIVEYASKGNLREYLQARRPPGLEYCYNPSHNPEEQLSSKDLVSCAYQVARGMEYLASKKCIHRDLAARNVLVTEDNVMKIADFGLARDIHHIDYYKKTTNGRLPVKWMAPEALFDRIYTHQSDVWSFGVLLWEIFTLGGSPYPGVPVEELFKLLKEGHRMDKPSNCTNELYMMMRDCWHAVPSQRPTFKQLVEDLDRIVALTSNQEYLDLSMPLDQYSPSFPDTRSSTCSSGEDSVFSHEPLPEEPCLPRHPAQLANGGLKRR

c-Abl (mouse) = assay: as above
c-Src = assay: as above
FGFR3 = FGFR3 (UniProt P22607); assay: as above
EPHB2 = EPHB2 (UniProt P29323); assay: as above
Chain of EPHB2 (P29323 whole entry, looked up): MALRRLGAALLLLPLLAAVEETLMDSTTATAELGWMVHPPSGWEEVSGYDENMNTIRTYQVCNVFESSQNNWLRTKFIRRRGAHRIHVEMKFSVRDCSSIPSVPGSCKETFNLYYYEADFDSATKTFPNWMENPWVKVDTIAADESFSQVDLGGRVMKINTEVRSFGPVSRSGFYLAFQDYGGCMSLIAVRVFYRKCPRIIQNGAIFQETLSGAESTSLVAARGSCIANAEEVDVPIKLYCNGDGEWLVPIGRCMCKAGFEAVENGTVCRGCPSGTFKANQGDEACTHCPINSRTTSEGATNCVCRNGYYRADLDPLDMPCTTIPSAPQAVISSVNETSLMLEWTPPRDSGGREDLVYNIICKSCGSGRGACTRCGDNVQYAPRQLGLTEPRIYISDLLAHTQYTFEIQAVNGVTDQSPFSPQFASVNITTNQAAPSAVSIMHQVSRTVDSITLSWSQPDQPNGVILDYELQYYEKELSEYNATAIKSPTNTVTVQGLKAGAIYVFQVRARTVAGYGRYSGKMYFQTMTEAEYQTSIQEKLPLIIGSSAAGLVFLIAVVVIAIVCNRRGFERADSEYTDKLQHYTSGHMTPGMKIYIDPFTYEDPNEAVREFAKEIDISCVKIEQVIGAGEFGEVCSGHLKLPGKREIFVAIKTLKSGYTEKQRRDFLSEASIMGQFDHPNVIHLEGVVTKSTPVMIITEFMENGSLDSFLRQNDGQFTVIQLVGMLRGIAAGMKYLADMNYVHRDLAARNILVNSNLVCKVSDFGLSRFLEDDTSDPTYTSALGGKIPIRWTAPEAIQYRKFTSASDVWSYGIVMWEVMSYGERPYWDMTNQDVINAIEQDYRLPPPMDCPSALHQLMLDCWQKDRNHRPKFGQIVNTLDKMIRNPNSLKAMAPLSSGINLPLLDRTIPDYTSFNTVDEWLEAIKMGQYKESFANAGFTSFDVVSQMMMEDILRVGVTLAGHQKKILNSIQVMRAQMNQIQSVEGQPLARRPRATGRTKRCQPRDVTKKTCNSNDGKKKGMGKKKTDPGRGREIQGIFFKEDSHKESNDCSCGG

MERTK = MERTK (UniProt Q12866); assay: as above
Chain of MERTK (Q12866 whole entry, looked up): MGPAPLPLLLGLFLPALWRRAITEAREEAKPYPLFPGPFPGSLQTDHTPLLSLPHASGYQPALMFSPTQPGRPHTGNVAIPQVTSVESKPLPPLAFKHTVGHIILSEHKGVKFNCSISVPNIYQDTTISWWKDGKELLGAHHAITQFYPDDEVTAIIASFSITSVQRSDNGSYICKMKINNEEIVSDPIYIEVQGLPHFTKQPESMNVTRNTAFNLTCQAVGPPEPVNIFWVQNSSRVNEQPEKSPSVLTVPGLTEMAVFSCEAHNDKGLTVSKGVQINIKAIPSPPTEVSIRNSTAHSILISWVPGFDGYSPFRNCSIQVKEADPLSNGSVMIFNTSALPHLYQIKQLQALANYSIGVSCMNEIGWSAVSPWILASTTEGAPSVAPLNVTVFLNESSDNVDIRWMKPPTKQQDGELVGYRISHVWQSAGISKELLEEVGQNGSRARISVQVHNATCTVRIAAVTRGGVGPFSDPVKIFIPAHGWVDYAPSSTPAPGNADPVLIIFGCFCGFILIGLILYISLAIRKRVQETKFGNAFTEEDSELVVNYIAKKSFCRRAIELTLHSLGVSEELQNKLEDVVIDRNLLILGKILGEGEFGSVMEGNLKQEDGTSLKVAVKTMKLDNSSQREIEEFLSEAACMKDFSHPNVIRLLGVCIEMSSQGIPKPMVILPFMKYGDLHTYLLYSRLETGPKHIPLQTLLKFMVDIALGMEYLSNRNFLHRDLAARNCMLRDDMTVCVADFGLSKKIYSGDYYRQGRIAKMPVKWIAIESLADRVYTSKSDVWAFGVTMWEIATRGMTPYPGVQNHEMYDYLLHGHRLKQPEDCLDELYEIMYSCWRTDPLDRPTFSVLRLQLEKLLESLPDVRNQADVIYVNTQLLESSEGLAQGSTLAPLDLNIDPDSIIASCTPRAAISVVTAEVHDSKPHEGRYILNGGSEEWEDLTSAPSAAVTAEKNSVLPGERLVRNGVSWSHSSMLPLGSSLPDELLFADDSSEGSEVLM

SHP2-C SH2 = assay: SH2 binding enrichment of the phosphorylated peptide, bacterial display (enrichment ratio); higher = better substrate or ligand; peptides without Tyr show the background
c-Src SH2 = assay: as above
Grb2 SH2 = Grb2 SH2 (UniProt P62993); assay: as above
Chain of Grb2 SH2 (P62993 whole entry, looked up, the tested form may be a part): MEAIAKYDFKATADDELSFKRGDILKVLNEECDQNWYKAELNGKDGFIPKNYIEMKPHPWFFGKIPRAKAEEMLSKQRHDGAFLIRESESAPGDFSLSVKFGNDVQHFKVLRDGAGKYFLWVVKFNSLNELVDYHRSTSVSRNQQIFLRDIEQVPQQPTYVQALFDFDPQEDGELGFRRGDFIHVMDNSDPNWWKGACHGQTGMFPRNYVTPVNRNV
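Throughout, for SH2 binding enrichment of the phosphorylated peptide, bacterial display: peptide library displayed on the E. coli surface as eCPX fusions, selected cells deep-sequenced, score is each peptide's frequency after selection divided by its frequency in the input.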
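Throughout, for phosphorylation enrichment, bacterial display: 11-residue human phosphosite peptides and single-mutation variants displayed on the E. coli surface, counted by deep sequencing, each peptide's frequency after selection divided by its frequency in the unselected input library; frequency after pTyr selection over input frequency; kinase dosed for 20-30% of maximal phosphorylation in three min.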

Chain of Jak2 (O60674 whole entry, looked up): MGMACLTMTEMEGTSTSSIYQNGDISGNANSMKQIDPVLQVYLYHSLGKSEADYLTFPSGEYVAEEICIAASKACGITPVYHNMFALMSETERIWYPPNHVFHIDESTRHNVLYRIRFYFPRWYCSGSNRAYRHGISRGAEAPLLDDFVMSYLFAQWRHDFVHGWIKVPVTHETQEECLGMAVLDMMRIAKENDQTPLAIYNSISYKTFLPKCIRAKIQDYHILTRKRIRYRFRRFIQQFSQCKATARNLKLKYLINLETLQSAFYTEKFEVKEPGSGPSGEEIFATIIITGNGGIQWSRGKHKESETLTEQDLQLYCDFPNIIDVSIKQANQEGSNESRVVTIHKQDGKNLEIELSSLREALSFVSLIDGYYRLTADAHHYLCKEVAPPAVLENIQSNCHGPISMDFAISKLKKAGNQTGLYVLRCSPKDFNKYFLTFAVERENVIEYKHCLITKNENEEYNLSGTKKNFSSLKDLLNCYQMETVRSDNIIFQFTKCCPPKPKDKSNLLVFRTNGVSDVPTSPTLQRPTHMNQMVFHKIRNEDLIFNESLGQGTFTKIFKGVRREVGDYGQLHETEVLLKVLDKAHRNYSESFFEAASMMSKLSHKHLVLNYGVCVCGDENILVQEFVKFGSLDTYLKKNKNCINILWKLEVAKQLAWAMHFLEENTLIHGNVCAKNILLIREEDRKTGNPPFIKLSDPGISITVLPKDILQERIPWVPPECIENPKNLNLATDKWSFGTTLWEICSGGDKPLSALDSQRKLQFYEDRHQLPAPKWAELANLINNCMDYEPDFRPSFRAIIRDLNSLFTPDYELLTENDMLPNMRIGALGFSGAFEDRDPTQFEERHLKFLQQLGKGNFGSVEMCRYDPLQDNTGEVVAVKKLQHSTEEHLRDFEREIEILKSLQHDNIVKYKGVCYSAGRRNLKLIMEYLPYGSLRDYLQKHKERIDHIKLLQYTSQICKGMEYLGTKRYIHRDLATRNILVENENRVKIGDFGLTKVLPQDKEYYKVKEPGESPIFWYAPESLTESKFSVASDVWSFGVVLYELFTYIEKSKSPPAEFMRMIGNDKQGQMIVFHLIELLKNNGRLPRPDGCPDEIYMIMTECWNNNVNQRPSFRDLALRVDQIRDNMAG

| Sequence | phosphorylation enrichment (Jak2) | phosphorylation enrichment (EPHB1) | phosphorylation enrichment (Fes) | phosphorylation enrichment (Hck) | phosphorylation enrichment (AncSZ) | phosphorylation enrichment (Fyn) | phosphorylation enrichment (Fer (mouse)) | phosphorylation enrichment (FGFR1) | phosphorylation enrichment (c-Abl (mouse)) | phosphorylation enrichment (c-Src) | phosphorylation enrichment (FGFR3) | phosphorylation enrichment (EPHB2) | phosphorylation enrichment (MERTK) | SH2 binding enrichment (SHP2-C SH2) | SH2 binding enrichment (c-Src SH2) | SH2 binding enrichment (Grb2 SH2) |
| --- | --- | --- | --- | --- | --- | --- | --- | --- | --- | --- | --- | --- | --- | --- | --- | --- |
| HTEGEYSSLEH [IDH3B_Y171_Q166H] | 0.828 | 1.44 | 1.09 | 1.24 | 1.85 | 1.46 | 0.791 | 0.793 | 0.97 | 1.02 | 0.785 | 1.28 | 0.764 | 0.862 | 0.9 | 0.808 |
| IDAICYFRMEN [NPHS2_Y194_YF] | 2.44 | 0.692 | 1.59 | 0.612 | 1.26 | 0.572 | 0.484 | 0.656 | 0.974 | 0.613 | 0.949 | 0.623 | 0.556 | 0.89 | 0.703 | 0.673 |
| IGEGTSGVVYK [CDK2_Y15_Y15S] | 0.494 | 0.374 | 0.616 | 0.306 | 0.574 | 0.28 | 0.339 | 0.299 | 0.5 | 0.29 | 0.426 | 0.319 | 0.274 | 0.562 | 0.361 | 0.639 |
| IGERTYGQVFK [CDK13_Y716_G714R_YF] | 0.495 | 0.468 | 0.905 | 3.7 | 0.62 | 7.52 | 0.456 | 0.368 | 0.474 | 5.22 | 0.482 | 0.557 | 0.4 | 0.754 | 0.519 | 0.857 |
| IGMFSYVMLAS [GGCX_Y301] | 1.57 | 0.649 | 1.56 | 0.548 | 1.21 | 0.444 | 0.562 | 0.598 | 0.997 | 0.512 | 0.851 | 0.611 | 0.477 | 0.604 | 0.424 | 0.841 |
| IGSQRYQLGVR [RB1_Y446_K447Q] | 0.413 | 0.315 | 0.534 | 0.34 | 0.439 | 0.365 | 0.403 | 0.346 | 0.451 | 0.343 | 0.388 | 0.303 | 0.385 | 0.887 | 0.66 | 1.07 |
| IGVGSYSVCKR [RPS6KA3_Y433] | 0.618 | 0.369 | 0.878 | 0.383 | 0.716 | 0.317 | 0.385 | 0.354 | 0.53 | 0.362 | 0.496 | 0.412 | 0.445 | 0.88 | 0.938 | 0.867 |
| IHFAIYFLKYS [ARMC9_Y107_L108F] | 1.73 | 0.789 | 1.41 | 0.787 | 1.21 | 0.723 | 0.586 | 0.666 | 1.09 | 0.585 | 1.01 | 0.718 | 0.529 | 1.22 | 1.11 | 1.18 |
| IHHIDYYKETT [FGFR1_Y653_K656E] | 0.513 | 0.594 | 1.05 | 0.471 | 0.694 | 0.549 | 0.396 | 0.76 | 0.442 | 0.409 | 0.891 | 0.653 | 0.491 | 0.635 | 1.08 | 0.808 |
| IIAVHYVLEES [RYR2_Y4559] | 0.963 | 0.565 | 2.04 | 0.516 | 1 | 0.457 | 0.501 | 0.557 | 0.676 | 0.488 | 0.626 | 0.628 | 0.484 | 1.28 | 1.09 | 1.41 |
| IKAGAYDFPSP [CAMK2A_Y230] | 0.548 | 0.362 | 0.708 | 0.419 | 0.811 | 0.747 | 1.43 | 0.397 | 0.551 | 0.485 | 0.462 | 0.416 | 4.85 | 0.687 | 4.16 | 1.03 |
| ILGRTHFVNHE [NEDD4_Y627_Y627H_YF] | 0.485 | 0.471 | 0.707 | 0.451 | 0.633 | 0.476 | 0.457 | 0.397 | 0.5 | 0.377 | 0.559 | 0.535 | 0.423 | 0.637 | 0.466 | 0.899 |
| ILTLKYPIERG [ACTA1_Y71_H75R] | 0.675 | 0.542 | 0.812 | 0.49 | 0.669 | 0.554 | 0.407 | 0.572 | 0.581 | 0.479 | 0.655 | 0.663 | 0.442 | 1.01 | 0.691 | 0.901 |
| INNIDYFKNTT [FGFR2_Y656_K659N_YF] | 0.463 | 0.374 | 0.687 | 0.401 | 0.471 | 0.393 | 0.317 | 0.377 | 0.421 | 0.301 | 0.474 | 0.327 | 0.408 | 0.692 | 0.36 | 0.81 |
| INNIDYYKNTT [FGFR2_Y656_K659N] | 0.59 | 0.392 | 0.708 | 0.462 | 0.724 | 0.495 | 0.359 | 0.535 | 0.574 | 0.378 | 0.538 | 0.451 | 0.428 | 0.793 | 0.662 | 1.22 |
| INSLKYAFNVS [EIF2B5_Y583_I587V_YF] | 0.771 | 0.443 | 0.85 | 0.51 | 0.77 | 0.478 | 0.452 | 0.44 | 0.593 | 0.464 | 0.584 | 0.43 | 0.447 | 0.352 | 0.379 | 0.705 |
